Data reported in patent US20060148059A1, “Salt tolerant l-myo-inositol 1-phosphate synthase and the process of obtaining the same” (priority 2002, published 2006).

Assays:
[1] = substrate: O=P(O)(O)OC[C@H]1OC(O)[C@H](O)[C@@H](O)[C@@H]1O; assay: cells, lysate or membranes named; settings: Line-Weaver Burk analysis, pH 7.5
[2] = substrate: NC(=O)c1ccc[n+]([C@@H]2O[C@H](COP(=O)([O-])OP(=O)(O)OC[C@H]3O[C@@H](n4cnc5c(N)ncnc54)[C@H](O)[C@@H]3O)[C@@H](O)[C@H]2O)c1; assay: Km and Vmax of recombinant RINO1 (Biogel 0.5A purified, Line-Weaver Burk analysis); format: biochemical, Oryza sativa; settings: other: recombinant RINO1, expressed in E. coli BL21 (DE3), pH 7.5
Description: (§1) The cDNA for RINO1 and PINO1 were subcloned into suitable cloning sites of the bacterial expression vector pET 20B (+). The resulting plasmids were introduced into the host strain E. coli BL-21 (DE3). The bacteria were grown in LB medium up to A600 of 0.5-absorbance unit and induced by 0.5 mM IPTG for 6 hours at 30° C. The bacteria were collected by centrifugation and lysed by sonication in a buffer containing 20 mM Tris-HCl, pH 7.5. 10 mM each of NH4Cl and ME, 2 mM PMSF. The lysed extracts were centrifuged and protein from both soluble and membrane fractions were analyzed by 10% SDS-PAGE according to Lammeli (Nature, 227, 660-605, 1970) followed by western blot for immunodetection. The separated proteins were blotted onto PVDF membrane and the blot was probed with rabbit anti L-myo-inositol 1-phosphate synthase antibody (1:500) raised against purified recombinant L-myo-inositol 1-phosphate synthase of Entamoeba (Lohia et al, Mol. Biochem. Parasitol. 98, 67-79, 1999) or purified cytosolic L myo-inositol 1-phosphate […] from Oryza leaves. Bound antibody was detected by the chemiluminiscence (kit from Amersham Life Sciences). […] The expressed RINO1 and PINO1 proteins were solubilized from the pellet fractions in solubilization buffer (8M urea, 0.5 M NaCl, 20 mM Tris-HCl pH 7.5, 10 mM ME, 2 mM PMSF) kept for 30 minutes at room temperature. […]

[3] = substrate: NC(=O)c1ccc[n+]([C@@H]2O[C@H](COP(=O)([O-])OP(=O)(O)OC[C@H]3O[C@@H](n4cnc5c(N)ncnc54)[C@H](O)[C@@H]3O)[C@@H](O)[C@H]2O)c1; assay: Km and Vmax of recombinant PINO1 (Biogel 0.5A purified, Line-Weaver Burk analysis); format: biochemical, Porteresia coarctata; settings: other: recombinant PINO1, expressed in E. coli BL21 (DE3), pH 7.5
Description: as §1

B1: Oryza sativa L-myo-inositol 1-phosphate synthase RINO1, recombinant (GenBank AB012107) (Oryza sativa Japonica Group) (protein)
chain: MFIESFRVESPHVRYGAAEIESDYQYDTTELVHESHDGASRWIVRPKSVRYNFRTTTTVPKLGVMLVGWGGNNGSTLTAGVIANREGISWATKDKVQQANYYGSLTQASTIRVGSYNGEEIYAPFKSLLPMVNPDDLVFGGWDISNMNLADAMTRAKVLDIDLQKQLRPYMESMVPLPGIYDPDFIAANQGSRANNVIKGTKKEQMEQIIKDIREFKEKSKVDKVVVLWTANTERYSNVCVGLNDTMENLLASVDKNEAEISPSTLYAIACVMEGIPFINGSPQNTFVPGLIDLAIKNNCLIGGDDFKSGQTKMKSVLVDFLVGAGIKPTSIVSYNHLGNNDGMNLSAPQTFRSKEISKSNVVDDMVSSNAILYELGEHPDHVVVIKYVPYVGDSKRAMDEYTSEIFMGGKSTIVLHNTCEDSLLAAPIILDLVLLAELSTRIQLKAEGEEKFHSFHPVATILSYLTKAPLVPPGTPVVNALAKQRAMLENIMRACVGLAPENNMILEYK
notes: homotrimer
Work on B1 yielded a Km ([1]; other: recombinant RINO1, expressed in E. coli BL21 (DE3)) of 3000 µM and a Km [2] of 188 µM.

B2: Porteresia coarctata L-myo-inositol 1-phosphate synthase PINO1, recombinant (GenBank AF 412340) (Oryza coarctata) (protein)
chain: MFIESFRVESPHVRYGAAEIESEYRYDTTELVHESHDGASRWVVRPKSVQYHFRTSTTVPKLGVMLVGWGGNNGSTLTAGVIASREGISWATKDKVQQANYYGSLTQASTIRVGSYNGEEIYAPFKSLLPMVNPDDLVFGGWDISNMNLADAMTRAKVLDIDLQKQLRPYMESWCLSLASMIPTSSPLTRDPARTMSSREPRRSRWGRSSKDIREFKENNKMDKAVVLWTANTERYNNCLCLGLMTNGKPSASVDRNQAEISPSTLYCHCLASLEGVRSITGALKKKSWPGIDDLAIKKKLPDPGGLIQKRGKPKKKTGLVDFLMGAGIKPTSIVSYNHLGNNDGTNLSAPQTFRSKEISKSSVVDDMVSSNAILYEPGEHPDHVVVIKYVPYVGDSKRAMDEYTSEIFMGGKNTIVLHNTCEDSLLAAPIILDLVLLAELSTRIQLKGEGEEKFHSFHPVATILSYLTKAPLVPPGTPVVNALAKQRAMLENIMRACVGLAPENNMILEYK
notes: homotrimer
B2 gave a Km ([1]; other: recombinant PINO1, expressed in E. coli BL21 (DE3)) of 2500 µM and a Km [3] of 166 µM.
